Where a chain is given by its changes, count along the chain named. In names and notes the source's numbering stands.
Columns and labels:
[1] = molecular target: T1, DapF (L89A), N-terminal 6×His tag (Escherichia coli, UniProt P0A6K1 1-274, L89A); test: ITC
T1 sequence (looked up): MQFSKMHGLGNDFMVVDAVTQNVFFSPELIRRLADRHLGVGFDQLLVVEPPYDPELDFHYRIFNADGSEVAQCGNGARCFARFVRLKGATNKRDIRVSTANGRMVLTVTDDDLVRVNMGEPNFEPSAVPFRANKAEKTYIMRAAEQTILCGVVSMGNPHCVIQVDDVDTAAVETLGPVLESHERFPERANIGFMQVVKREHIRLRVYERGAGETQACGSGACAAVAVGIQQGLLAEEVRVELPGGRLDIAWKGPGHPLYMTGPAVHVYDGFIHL

[2] = molecular target: T2, DapF (diaminopimelate epimerase), wild type, N-terminal 6×His tag (Escherichia coli, UniProt P0A6K1 1-274); test: ITC
T2 sequence (looked up): T1 sequence (looked up) with A89L

[3] = molecular target: T3, DapF (T20A), N-terminal 6×His tag (Escherichia coli, UniProt P0A6K1 1-274, T20A); test: ITC
T3 sequence (looked up): T1 sequence (looked up) with T20A, A89L

[4] = molecular target: T4, DapF (N22A), N-terminal 6×His tag (Escherichia coli, UniProt P0A6K1 1-274, N22A); test: ITC
T4 sequence (looked up): T1 sequence (looked up) with N22A, A89L

[5] = molecular target: T2, DapF (diaminopimelate epimerase), wild …; test: AUC
[6] = molecular target: T5, DapF (Y268A), N-terminal 6×His tag (Escherichia coli, UniProt P0A6K1 1-274, Y268A); test: AUC
T5 sequence (looked up): T1 sequence (looked up) with A89L, Y268A

DapF = molecular target: T6, DapF (Escherichia coli DH5alpha, UniProt P0A6K1 1-274); test: ITC
T6 sequence: T1 sequence (looked up) with A89L

RppH = molecular target: T7, RppH (Escherichia coli DH5alpha, UniProt P0A776 1-176); test: ITC
T7 sequence: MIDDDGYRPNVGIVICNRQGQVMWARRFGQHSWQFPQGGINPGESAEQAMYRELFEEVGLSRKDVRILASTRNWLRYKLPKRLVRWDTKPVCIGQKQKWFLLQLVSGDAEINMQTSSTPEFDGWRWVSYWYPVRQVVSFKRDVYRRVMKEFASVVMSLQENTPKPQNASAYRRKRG

RppH;DapF = molecular target: T8, RppH;DapF (Escherichia coli DH5alpha;Escherichia …, UniProt P0A776;P0A6K1 1-176;1-274, |); test: ITC
T8 sequence 1: T7 sequence
T8 sequence 2: T1 sequence (looked up) with A89L

B1: RppH (RNA pyrophosphohydrolase), wild type, GST tag removed (enzyme, Escherichia coli, UniProt P0A776 1-176, looked up)
chain: T7 sequence
- Kd [1]: 5.2 ± 0.9 nM
- dH [1]: -10.4 ± 0.1 kcal⋅mol^-1
- stoichiometry N [1]: 1.06
- Kd [2]: 0.8 ± 0.4 nM
- dH [2]: -13 ± 0.1 kcal⋅mol^-1
- stoichiometry N [2]: 0.95
- Kd [3]: 4.2 ± 1.8 nM
- dH [3]: -14.4 ± 0.2 kcal⋅mol^-1
- stoichiometry N [3]: 0.97
- Kd [4]: 0.3 ± 0.1 nM
- dH [4]: -16.4 ± 0.1 kcal⋅mol^-1
- stoichiometry N [4]: 0.96
- stoichiometry N [5]: 1 RppH per DapF (2:2 heterotetramer)
- stoichiometry N [6]: 1 RppH per DapF (1:1 heterodimer)

B2: RppH (D142A), GST tag removed (enzyme, Escherichia coli, UniProt P0A776 1-176, looked up)
chain: T7 sequence with D142A
- Kd [2]: 4.8 ± 1.8 nM
- dH [2]: -11 ± 0.2 kcal⋅mol^-1
- stoichiometry N [2]: 1.05

B3: RppH (R145A), GST tag removed (enzyme, Escherichia coli, UniProt P0A776 1-176, looked up)
chain: T7 sequence with R145A
- Kd [2]: 2.3 ± 1 nM
- dH [2]: -14.6 ± 0.1 kcal⋅mol^-1
- stoichiometry N [2]: 1.01

B4: RppH (S128A), GST tag removed (enzyme, Escherichia coli, UniProt P0A776 1-176, looked up)
chain: T7 sequence with S128A
- Kd [2]: 12.8 ± 6 nM
- dH [2]: -12.5 ± 0.3 kcal⋅mol^-1
- stoichiometry N [2]: 0.85

Binder: AGAACAAC (ssRNA, 5'-triphosphate) [8 nt RNA pppAGAACAAC]
- binding result (DapF): no binding
- binding result (RppH): binds
- Kd (RppH;DapF): ~120000 nM

From paper PMC6061791 (Nucleic Acids Research, 2018)
